Assay [1] has as its system type H endothelium (CD31^hi/Emcn^hi vessels). Put plainly: DFM treatment of aged mice, CD31/Osterix immunostaining of tibia sections. Format: in vivo. Particulars: aged 64 to 70 week-old mice; DFM i.p. every alternate day, 15 mg/ml per mouse, four weeks; vs vehicle control. The text has this:
3-4 weeks old male C57BL/6J mice were used for experiments involving analysis of juvenile mice. For the characterization of changes during aging, 9-11 week-old and 60-70 week-old C57BL/6J males were used as adults and aged mice, respectively. All EC-specific gene deletions were generated using Cdh5(PAC)-CreERT2 transgenic mice, which were interbred with conditional mutants carrying loxP-flanked Hif1α alleles (Hif1α^lox/lox). For experiments, Cdh5(PAC)-CreERT2^T/+ Hif1α^lox/lox were mated with Hif1α^lox/lox females. To induce Cre activity and gene deletion, pups were injected with 500 μg tamoxifen (Sigma, T5648) intraperitoneally everyday from postnatal day (P) 10 to P14. Femurs and tibiae from Cdh5(PAC)-CreERT2^T/+ Hif1α^lox/lox (Hif1α^iΔEC) mutants and Cre-negative (Hif1α^lox/lox) controls were collected on P28 after euthanasia. The same methodology was followed for gene deletion experiments involving conditional Vhl mice. For the specific genetic labeling of metaphyseal vasculature Cdh5(PAC)-CreERT2^T/+ mice were mated with Rosa26-mG/mT reporter line. At P29, Cdh5(PAC)-CreERT2^T/+/R26-mG/mT^d/+ mice received a single dose of 50 μg tamoxifen and were analyzed either 24 hrs (1 day) later or 40 days later. […]
For phenotypic analysis, mutant and littermate control samples were always processed, sectioned, stained, imaged and analysed together at the same conditions and settings. […]

In a further assay the test system is long bone. The experiment in a line: DFM treatment of aged mice, qPCR of osteoprogenitor and osteoblast markers in long bone. Format: in vivo, mouse. As to conditions: DFM-treated vs control. The method, then: For DFM treatment, freshly prepared deferoxamine mesylate (Sigma) in water was injected intraperitoneally every alternate day at the dose of 15 mg/ml per mouse over four weeks. For μ-CT analysis, this treatment was continued for five weeks. Animals in the control group were injected with same amount of sterile water.
For the analysis of mRNA expression levels in type H or type L endothelium, CD31^hi/Emcn^hi and CD31^lo/Emcn^lo cells were sorted by FACS directly into the lysis buffer of the RNeasy Mini Kit (QIAGEN). Total RNA was isolated according to manufacturer's protocol. A total of 100 ng RNA per reaction was used to generate cDNA with the iScript cDNA Synthesis System (Bio-Rad). Quantitative PCR (qPCR) was performed using TaqMan gene expression assays on ABI PRISM 7900HT Sequence Detection System. The FAM-conjugated TaqMan probes Tgfb1, Tgfb3, Fgf1, Pdgfa, Pdgfb and Kitl were used along with TaqMan Gene Expression Master Mix (Applied Biosystems). Gene expression assays were normalized to endogenous VIC-conjugated Actb probes as standard. For analysis of mRNA expression levels from whole bones, dissected femurs were immediately crushed finely, digested with collagenase, centrifuged to obtain a pellet, which was then lysed into lysis buffer of RNeasy Mini Kit (QIAGEN). […]

A short description of assay [2]: DFM treatment of aged mice, μ-CT analysis of tibia. Format: in vivo, mouse. Particulars: 6 weeks of DFM treatment, compared to aged control mice. The method, then: […] […] Animals in the control group were injected with same amount of sterile water.
Tibiae were collected, and the attached soft tissue was removed thoroughly and fixed in 4% paraformaldehyde. The fixed tibiae were analyzed using micro-CT (μCT 35) and software IPL V5.15 at Scanco Medical AG, Switzerland. A voxel size of 12 μm was chosen in all three spatial dimensions. For each sample, 148 from 232 slices were evaluated covering a total of 1.776 mm at a voltage of 70kVp, intensity 114 μA, integration time 1200 ms.

Assay [3] relates to bone endothelial cells (BECs). Put plainly: DFM treatment of cultured primary bone endothelial cells, qPCR mRNA analysis. Format: cell-based, mouse. As to conditions: isolated primary bone endothelial cells; DFM 6.25 mg/ml of culture medium, 7 hrs; qPCR vs vehicle. The method, then: Tibiae and femurs from wild-type mice or mice expressing endothelial specific reporters (Flk1 GFP and Cdh5 mtmg mice) or wild-type mice were collected in sterile Ca^2+ and Mg^2+ free PBS, crushed with mortar and pestle, digested with Collagenase A (Sigma) to obtain a single cell suspension. ECs were then MACS sorted using endomucin antibody (cat. no. SC-65495) and Dynabeads sheep anti-Rat IgG (Invitrogen). Sorted ECs were then plated on dishes coated with fibronectin and cultured in endothelial cell growth medium (EBM-2, Clonetics; Lonza) supplemented with EGM-2 SingleQuots (CC-4176, Clonetic; Lonza). At first passage, cells were again MACS sorted with endomucin antibody and plated for culture. Cells were fed every third day and passaged upon confluency. […]
For the analysis of mRNA expression levels in type H or type L endothelium, CD31^hi/Emcn^hi and CD31^lo/Emcn^lo cells were sorted by FACS directly into the lysis buffer of the RNeasy Mini Kit (QIAGEN). […] Quantitative PCR (qPCR) was performed using TaqMan gene expression assays on ABI PRISM 7900HT Sequence Detection System. […]
For the analysis of mRNA expression levels, pure total bone endothelial cells were flow-sorted directly into the lysis buffer of RNeasy Mini Kit (QIAGEN). […] Quantitative PCR (qPCR) was performed using TaqMan gene expression assays on ABI PRISM 7900HT Sequence Detection System. […]

The subject of assay [4] is Rbpj^iΔEC mice. Put plainly: Systemic recombinant Noggin in Rbpj^iΔEC mice, immunostaining of tibia sections. The assay is classed as in vivo, mouse. From the text: For Rbpj deletion in the postnatal vasculature, mice carrying loxP-flanked Rbpj gene (Rbpj^floxed) were interbred with mice expressing endothelial specific tamoxifen inducible CreERT2 i.e. Cdh5(PAC)-CreERT2. The males with genotype Rbpj^floxed/floxed Cdh5(PAC)-CreERT2^T/+ were interbred with Rbpj^floxed/floxed females to generate litters with Rbpj^floxed/floxed Cdh5(PAC)-CreERT2^T/+ (Rbpj^iΔEC) and Rbpj^floxed/floxed (control) genotypes. To induce Cre activity and gene deletion, all the litters were injected with 500 μg tamoxifen (Sigma, T5648) intraperitoneally everyday from P10 to P14. Femur and tibia were collected from these animals for analysis on P28 after euthanasia. The same methodology was followed for all gene deletion experiments of Fbxw7 ^iΔEC, Dll^iΔEC, Dll4^iΔEC, Jag1^iΔEC and Rbpj^iΔOB. For osteoblast specific loss of function experiments, Col1α1-CreERT2 mice (embryos purchased from Institut Clinique de la Souris, France) were interbred with Rbpj^floxed/floxed mice. Further, Rbpj floxed/floxed Col1a1-CreERT2^T/+ males were interbred with Rbpj^floxed/floxed females to generate litters with Rbpj^floxed/floxed Col1aCreERT2^T/+ (Rbpj^iΔOB) and Rbpj^floxed/floxed (control) genotypes.
(§1) For experiments involving Noggin treatment, both control and Rbpj^iΔEC mice were injected intraperitoneally once daily with 500 μg/kg recombinant Noggin (1967-NG, R&D Systems) dissolved in PBS in a volume of 50 μl per dose. Another set of control and Rbpj^iΔEC mice was injected with 50ul PBS for experimental control. All protein injections were done from P15 to P27, after tamoxifen treatment (P10-P14) before the day of analysis (P28).
Freshly dissected bone tissues collected from wild-type mice or from mutants and their control littermates were immediately fixed in ice-cold 4% paraformaldehyde solution for 4 hrs. Decalcification was carried out with 0.5M EDTA at 4° C. with constant shaking and decalcified bones were immersed into 20% sucrose and 2% polyvinylpyrrolidone (PVP) solution for 24 hr. Finally, the tissues were embedded and frozen in 8% gelatin (porcine) in presence of 20% sucrose and 2% PVP. For immunofluorescent stainings and morphological analyses, sections were generated using low-profile blades on a Leica CM3050 cryostat.
For phenotypic analysis, mutant and littermate control samples were always processed, sectioned, stained, imaged and analysed together at the same conditions and settings. For immunostaining, bone sections were air-dried, permeabilised for 10 min in 0.3% Triton X-100, blocked in 5% donkey serum at room temperature for 30 min, and probed with the primary antibodies diluted in 5% donkey serum in PBS for 2 hr at room temperature (RT) or overnight at 4° C.
Following are the details of primary antibodies used: Endomucin (sc-65495, Santa Cruz) used at 1:100 dilution; Pecam1 conjugated to Alexa fluor 488 (FAB3628G, R&D Systems) used at dilution 1:100; Pecam1 (553370, BD Pharmingen) used at 1:100 dilution; Osterix (sc-22536-R, Santa Cruz) used at dilution 1:200; Runx2 (MAB2006, R&D Systems) used at dilution 1:200; alpha SMA-Cy3 (C6198, Sigma) used at dilution 1:100; Hif1α (ab65979, Abcam) used at dilution 1:100; Collagen type 1 (AB675P; Millipore); Osteopontin (AF808, R&D Systems) used at dilution of 1:200, Mct4 (sc-50329 Santa Cruz) used at dilution of 1:100 and Glut1 (07-1401, Millipore) used at dilution of 1:100, NG2 Chondroitin Sulphate Proteoglycan (AB5320, Millipore) used at a dilution of 1:100.

Assay [5] deals with Rbpj^iΔEC mice. Put plainly: Systemic recombinant Noggin in Rbpj^iΔEC mice, calcein double labelling. Format: in vivo, mouse. As to conditions: Noggin 500 μg/kg i.p. once daily P15 to P27, 7 day interval. The method, then: as §1
Calcein double labeling was performed to calculate mineral apposition rate (MAR).
Mice were given intraperitoneal injections of 10 mg/kg calcein (Sigma, C0875) dissolved in 2% sodium bicarbonate solution at 10th day and 3rd day before euthanasia. Bones were fixed in 4% PFA, embedded in 8% gelatin and 2% PVP and cryosectioned. Single plane images were acquired from the sections using LSM 780 (Carl Zeiss). Mineral Apposition Rate (MAR) is the amount of bone formed during a particular time interval. It is calculated using the distance between the midpoints of two labels divided by time interval (7days).

The test system of assay [6] is murine mesenchymal progenitors. Put plainly: Osteoblastic differentiation of cultured murine mesenchymal progenitors with Noggin. The assay is classed as cell-based, mouse. Particulars: in vitro, recombinant Noggin.
Where [7] appears, read: Rbpj^iΔEC mice, Noggin 500 μg/kg i.p. once daily P15 to P27, analysis P28, vs saline-treated mutants.

Consider two molecules from US10053668B2, “Reprogramming bone endothelial cells for use in bone angiogenesis and osteogenesis” (MAX-PLANCK-GESELLSCHAFT ZUR FÖRDERUNG DER WISSENSCHAFTEN …, priority 2013, dated 2018).

“Also recorded” adds a separate entry of the source. Structures can show the parent of a compound that is named as a salt.

For the molecule `CC(=O)N(O)CCCCCNC(=O)CCC(=O)N(O)CCCCCNC(=O)CCC(=O)N(O)CCCCCN` [DFM, deferoxamine mesylate], in assay [1], the “Osterix-positive cells (osteoprogenitors) in association with type H vessels” value was “induces; also recorded: emergence” and the “type H endothelium (CD31^hi/Emcn^hi vessels) in long bone” value is “induces; also recorded: substantial expansion”. The “expression levels of mRNAs Sp7, Bglap and lbsp in long bone” value with long bone is on record as “significantly increased”. Moreover, the “bone mass (μ-CT)” value in assay [2] is listed as “significant increase”. In assay [3], the “expression of growth factor mRNAs Pdgfa, Pdgfb, Fgf1, Tgfb1, Tgfb3” value is on record as “induction; also recorded: increase”; the “transcripts for CD31 and Endomucin” value is “up regulation”.

B1: Noggin: recombinant Noggin (1967-NG, R&D Systems); secreted protein that binds and antagonises bone morphogenetic proteins (BMPs) (protein, UniProt Q13253 28-232, looked up)
Noggin: QHYLHIRPAPSDNLPLVDLIEHPDPIFDPKEKDLNETLLRSLLGGHYDPGFMATSPPEDRPGGGGGAAGGAEDLAELDQLLRQRPSGAMPSEIKGLEFSEGLAQGKKQRLSKKLRRKLQMWLWSQTFCPVLYAWNDLGSRFWPRYVKVGSCFSKRSCSVPEGMVCKPSKSVHLTVLRWRCQRRGGQRCGWIPIQYPIISECKCSC
For the molecule B1, the Endomucin staining intensity entry in the assay with Rbpj^iΔEC mice [4] (Noggin-treated Rbpj^iΔEC tibia sections) is on record as “increased”. Further, in the assay with Rbpj^iΔEC mice [4] (setting [7]), the “abundance of Runx2+ early osteoprogenitors in metaphysis” value is reported as “increases”, the “number of Osterix+ (Osx+) cells in metaphysis” value is reported as “reduced; also recorded: reduces the number of Osterix+ cells to control levels” and the “organization of the Rbpj^iΔEC metaphysis” value is listed as “restores”. Also, the “organization of the Rbpj^iΔEC bone vasculature (endothelial column and arch structures)” value in the assay with Rbpj^iΔEC mice [4] (Rbpj^iΔEC mice, Noggin 500 μg/kg i.p. once daily P15 to P27, endomucin immunostaining) is on record as “partially restored”. In addition, the “trabecular bone formation (osteopontin immunostaining)” value with Rbpj^iΔEC mice [4] (Rbpj^iΔEC mice, recombinant Noggin vs Saline) was “partial restoration”. In the assay with Rbpj^iΔEC mice [5], the “bone formation and mineral apposition rate” value was “restored; also recorded: significantly restores”. Besides, the “bone formation and mineral apposition rate” value with Rbpj^iΔEC mice [5] (listed as noggin) is recorded as “restores”. In addition, the “differentiation of primary mesenchymal cells into osteoblasts” value in assay [6] is given as “Inhibition; also recorded: inhibits”. Besides, in assay [6] (28 days of differentiation), the “alkaline phosphatase (ALP) expression” value is given as “enhanced; also recorded: maintained even after 28 days” and the “mineral nodule formation (Alizarin staining; osteoblast maturation)” value is “supressed; also recorded: delayed”.
